{"source": "patent US20070218075", "proteins": {"B1": {"name": "Factor XIIIa (Factor XIII, Haematologic Technologies, activated by thrombin) (protein)", "chain 1": "GVNLQEFLNVTSVHLFKERWDTNKVDHHTDKYENNKLIVRRGQSFYVQIDFSRPYDPRRDLFRVEYVIGRYPQENKGTYIPVPIVSELQSGKWGAKIVMREDRSVRLSIQSSPKCIVGKFRMYVAVWTPYGVLRTSRNPETDTYILFNPWCEDDAVYLDNEKEREEYVLNDIGVIFYGEVNDIKTRSWSYGQFEDGILDTCLYVMDRAQMDLSGRGNPIKVSRVGSAMVNAKDDEGVLVGSWDNIYAYGVPPSAWTGSVDILLEYRSSENPVRYGQCWVFAGVFNTFLRCLGIPARIVTNYFSAHDNDANLQMDIFLEEDGNVNSKLTKDSVWNYHCWNEAWMTRPDLPVGFGGWQAVDSTPQENSDGMYRCGPASVQAIKHGHVCFQFDAPFVFAEVNSDLIYITAKKDGTHVVENVDATHIGKLIVTKQIGGDGMMDITDTYKFQEGQEEERLALETALMYGAKKPLNTEGVMKSRSNVDMDFEVENAVLGKDFKLSITFRNNSHNRYTITAYLSANITFYTGVPKAEFKKETFDVTLEPLSFKKEAVLIQAGEYMGQLLEQASLHFFVTARINETRDVLAKQKSTVLTIPEIIIKVRGTQVVGSDMTVTVEFTNPLKETLRNVWVHLDGPGVTRPMKKMFREIRPNSTVQWEEVCRPWVSGHRKLIASMSSDSLRHVYGELDVQIQRRPSM", "chain 2": "EEKPCGFPHVENGRIAQYYYTFKSFYFPMSIDKKLSFFCLAGYTTESGRQEEQTTCTTEGWSPEPRCFKKCTKPDLSNGYISDVKLLYKIQENMRYGCASGYKTTGGKDEEVVQCLSDGWSSQPTCRKEHETCLAPELYNGNYSTTQKTFKVKDKVQYECATGYYTAGGKKTEEVECLTYGWSLTPKCTKLKCSSLRLIENGYFHPVKQTYEEGDVVQFFCHENYYLSGSDLIQCYNFGWYPESPVCEGRRNRCPPPPLPINSKIQTHSTTYRHGEIVHIECELNFEIHGSAEIRCEDGKWTEPPKCIEGQEKVACEEPPFIENGAANLHSKIYYNGDKVTYACKSGYLLHGSNEITCNRGKWTLPPECVENNENCKHPPVVMNGAVADGILASYATGSSVEYRCNEYYLLRGSKISRCEQGKWSSPPVCLEPCTVNVDYMNRNNIEMKWKYEGKVLHGDLIDFVCKQGYDLSPLTPLSELSVQCNRGEVKYPLCTRKESKGMCTSPPLIKHGVIISSTVDTYENGSSVEYRCFDHHFLEGSREAYCLDGMWTTPPLCLEPCTLSFTEMEKNNLLLKWDFDNRPHILHGEYIEFICRGDTYPAELYITGSILRMQCDRGQLKYPRCIPRQSTLSYQEPLRT"}}, "key": {"[1]": {"molecular_target": "T1, recombinant fibronectin-binding protein A (rFnbA) comprising residues Ala1 through Pro839 from S. aureus strain ATCC49525, wild type", "T1 chain": "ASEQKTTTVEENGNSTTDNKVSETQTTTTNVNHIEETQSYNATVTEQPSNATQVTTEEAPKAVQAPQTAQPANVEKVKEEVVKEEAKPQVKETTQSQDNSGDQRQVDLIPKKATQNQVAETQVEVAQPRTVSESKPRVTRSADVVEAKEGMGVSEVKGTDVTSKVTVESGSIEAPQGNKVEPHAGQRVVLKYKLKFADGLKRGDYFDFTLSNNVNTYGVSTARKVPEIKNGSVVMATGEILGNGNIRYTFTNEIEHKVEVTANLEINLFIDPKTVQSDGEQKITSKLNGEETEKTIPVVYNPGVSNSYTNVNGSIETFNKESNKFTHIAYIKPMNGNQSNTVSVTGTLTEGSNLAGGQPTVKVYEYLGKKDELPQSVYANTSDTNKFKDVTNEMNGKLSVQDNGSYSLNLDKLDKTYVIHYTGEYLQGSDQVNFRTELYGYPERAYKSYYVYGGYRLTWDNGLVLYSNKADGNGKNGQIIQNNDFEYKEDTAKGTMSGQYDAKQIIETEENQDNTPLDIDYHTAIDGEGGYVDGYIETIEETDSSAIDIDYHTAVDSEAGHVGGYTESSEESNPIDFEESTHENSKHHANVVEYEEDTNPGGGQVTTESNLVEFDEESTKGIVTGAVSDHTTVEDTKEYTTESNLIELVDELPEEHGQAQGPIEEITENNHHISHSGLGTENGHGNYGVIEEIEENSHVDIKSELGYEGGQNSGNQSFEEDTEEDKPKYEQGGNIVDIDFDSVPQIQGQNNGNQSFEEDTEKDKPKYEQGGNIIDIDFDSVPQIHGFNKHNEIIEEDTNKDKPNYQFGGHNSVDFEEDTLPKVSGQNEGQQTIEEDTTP"}, "[2]": {"molecular_target": "T2, 4Q4K FnbA mutant (recombinant Gln103Ala, Gln105Ala, Gln783Ala, Gln830Ala, Lys157Ala, Lys503Ala, Lys620Ala, and Lys762Ala mutant, residues Ala1-Pro839)", "T2 chain": "T1 chain with Q103A, Q105A, K157A, K503A, K620A, K762A, Q783A, Q830A"}, "[3]": {"molecular_target": "T3, 1Q FnbA mutant (recombinant Gln103Ala FnbA mutant, residues Ala1-Pro839)", "T3 chain": "T1 chain with Q103A"}}, "note": "Substitutions are numbered along the chain they refer to."}
{"protein": "B1", "values": [{"measurement": "Factor XIIIa-catalyzed incorporation of dansylcadaverine (fluorescence of the FnbA band on SDS-PAGE)", "setting": "[1]", "result": "the band corresponding to the wild-type FnbA undergoes a continual increase of fluorescence reflecting the enzymatic attachment of increasing molecules of the probe"}, {"measurement": "Factor XIIIa-catalyzed incorporation of dansylcadaverine (fluorescence of the FnbA band on SDS-PAGE)", "setting": "[2]", "result": "Further reduction in fluorescence intensity was observed with the 4Q4K rFnbA mutant"}, {"measurement": "Factor XIIIa-catalyzed incorporation of dansylcadaverine (fluorescence of the FnbA band on SDS-PAGE)", "setting": "[3]", "result": "incorporation of dansylcadaverine into the 1Q FnbA mutant was drastically reduced"}]}
